Data published in publication PMC6135047.

Target: His-ToxR (Vibrio parahaemolyticus RIMD 2210633?) (UniProt Q05938)
Test: DNase I footprinting

Sequence of UniProt Q05938 (Q05938 1-176): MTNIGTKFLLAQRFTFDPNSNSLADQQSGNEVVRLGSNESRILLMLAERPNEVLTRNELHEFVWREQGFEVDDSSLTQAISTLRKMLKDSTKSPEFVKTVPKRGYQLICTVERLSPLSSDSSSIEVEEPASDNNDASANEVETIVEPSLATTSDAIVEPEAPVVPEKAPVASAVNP

Sequence	binding
CAGATTGCTGAATATCGGTGATGTATGAGAAATCGTTCAATGTAAAAAATATGCGCAATGATTGATGCTGGGAGAATAGAAAGGATGAGGTGGTATTTATAGTGAATATTGGTCGGGAGTTTTTAGAAAACTGAAAACGCCCTAAAAAAACACGTCTGATTTTGACAGCCTGATAAAAACGCACTTCATATAATTCGCTTGTATTGTACGAAAGGAGTGCAAGTGAATGAGTATTATCAAT (double strand) [VP1667 (vopN) footprint probe]	binds
TTTCAGGGACGACTTTGTGATTTAGCCCCATGAAATCACCACACTAAGATGTCATTTAACATGTGGCTGACAAATGTAAATTCAAGGTCAATATTGCTAAAAACGGTGTTTTTTTAGAAAAATTTAATTATCCTACCCCCCTAAAAGCATCTAAAACGTCGCGTATCTCCCATGCGCAAACGTAATTTTGTGATATAAATCACCATAATTACAACATCATCCATCTAAGAAGAACTAA (double strand) [toxR footprint probe]	binds
CAGAGTGACCCAGAGCCGTTTTGATGCTGTTATTTTTCATCATTCGGCGCGATTAATATGCTAAAGATGGTCGGATTTTTTTCGTTTTAAGACGTTTGAAAACAACAAAGCTCAGCAATGTGCTGAGCTTTGTGTTCGATTGATTTGGCGGTGATGCCCTACTCTGGTG (double strand) [VP1687 footprint probe]	binds
